In the supplement of paper PMC9112550, “Optimization of the antimicrobial peptide Bac7 by deep mutational scanning” (BMC Biology, 2022):

Test system: Escherichia coli TOP10
Assay: shrunken log2 fold change of peptide-encoding DNA abundance (4.5 h post-induction vs induction); higher = less antimicrobial activity (less host growth inhibition)
Conditions: time post-induction: 4.5 h; library: site-saturation at positions 5, 18, 19, 20
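Also: peptides expressed intracellularly from a pBAD plasmid library in pooled LB shake-flask culture, induced with 0.3% L-arabinose, DNA abundance read by NGS, three biological replicates, DESeq2 with apeglm shrinkage.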

| Sequence | shrunken log2 fold change |
| --- | --- |
| RRIRTRPPRLPRPRPRPSRIPRP | -0.179 |
| RRIRYRPPRLPRPRPRPRWWPRP | 0.189 |
| RRIRMRPPRLPRPRPRPEPMPRP | 0.386 |
| RRIRWRPPRLPRPRPRPGNWPRP | 0.0533 |
| RRIRMRPPRLPRPRPRPCYEPRP | 0.0712 |
| RRIRVRPPRLPRPRPRPPLGPRP | 0.554 |
| RRIRGRPPRLPRPRPRPMIQPRP | 0.522 |
| RRIRWRPPRLPRPRPRPHKFPRP | -0.307 |
| RRIRARPPRLPRPRPRPEKGPRP | -0.0434 |
| RRIRNRPPRLPRPRPRPHVHPRP | -0.109 |
| RRIRWRPPRLPRPRPRPNPYPRP | -0.133 |
| RRIRWRPPRLPRPRPRPMHFPRP | -0.00884 |
| RRIRKRPPRLPRPRPRPSPHPRP | -0.0333 |
| RRIRYRPPRLPRPRPRPCLKPRP | -0.0431 |
| RRIRIRPPRLPRPRPRPLWRPRP | 0.156 |
| RRIRRRPPRLPRPRPRPKWTPRP | -0.149 |
| RRIRCRPPRLPRPRPRPATLPRP | -0.154 |
| RRIRARPPRLPRPRPRPDWNPRP | 0.0789 |
| RRIRPRPPRLPRPRPRPTPYPRP | -0.0196 |
| RRIRWRPPRLPRPRPRPLGNPRP | -0.14 |
| RRIRCRPPRLPRPRPRPPLLPRP | -0.0189 |
| RRIRLRPPRLPRPRPRPSDEPRP | -0.255 |
| RRIRARPPRLPRPRPRPNSGPRP | -0.0211 |
| RRIRTRPPRLPRPRPRPFMTPRP | -0.12 |
| RRIRKRPPRLPRPRPRPCFIPRP | -0.13 |

| Sequence | shrunken log2 fold change |
| --- | --- |
| RRIRLRPPRLPRPRPRPWLRPRP | -0.0452 |
| RRIRGRPPRLPRPRPRPVPWPRP | 0.526 |
| RRIRNRPPRLPRPRPRPAMDPRP | 0.166 |
| RRIRSRPPRLPRPRPRPHYQPRP | -0.357 |
| RRIRQRPPRLPRPRPRPKGDPRP | 0.00911 |
| RRIRKRPPRLPRPRPRPASSPRP | 0.0469 |
| RRIRARPPRLPRPRPRPFQPPRP | 0.0667 |
| RRIRNRPPRLPRPRPRPMFSPRP | -0.186 |
| RRIRSRPPRLPRPRPRPSCIPRP | -0.223 |
| RRIRWRPPRLPRPRPRPFLIPRP | -0.488 |
| RRIRGRPPRLPRPRPRPLREPRP | 1.85 |
| RRIRPRPPRLPRPRPRPDYEPRP | -0.136 |
| RRIRFRPPRLPRPRPRPKNCPRP | 1.35 |
| RRIRSRPPRLPRPRPRPCRLPRP | -0.271 |
| RRIRERPPRLPRPRPRPCMSPRP | -0.00711 |
| RRIRNRPPRLPRPRPRPVALPRP | -0.0331 |
| RRIRARPPRLPRPRPRPRASPRP | 0.797 |
| RRIRGRPPRLPRPRPRPWRCPRP | 0.0546 |
| RRIRTRPPRLPRPRPRPNPGPRP | -0.0312 |
| RRIRRRPPRLPRPRPRPGMWPRP | 0.59 |
| RRIRIRPPRLPRPRPRPPVQPRP | -0.0716 |
| RRIRVRPPRLPRPRPRPDNDPRP | -0.232 |
| RRIRMRPPRLPRPRPRPHCRPRP | 0.274 |
| RRIRFRPPRLPRPRPRPSRAPRP | 0.352 |
| RRIRRRPPRLPRPRPRPVDTPRP | 0.0438 |

| Sequence | shrunken log2 fold change |
| --- | --- |
| RRIRYRPPRLPRPRPRPNATPRP | -0.222 |
| RRIRFRPPRLPRPRPRPWNFPRP | -0.0389 |
| RRIRFRPPRLPRPRPRPQLLPRP | 0.0217 |
| RRIRCRPPRLPRPRPRPGLPPRP | 0.143 |
| RRIRSRPPRLPRPRPRPKAAPRP | 0.252 |
| RRIRWRPPRLPRPRPRPAIGPRP | 0.0325 |
| RRIRIRPPRLPRPRPRPGKSPRP | -0.0715 |
| RRIRGRPPRLPRPRPRPMIFPRP | 0.283 |
| RRIRHRPPRLPRPRPRPDNAPRP | -0.34 |
| RRIRKRPPRLPRPRPRPHPTPRP | 0.431 |
| RRIRIRPPRLPRPRPRPEFDPRP | 0.0326 |
| RRIRVRPPRLPRPRPRPCFNPRP | -0.421 |
| RRIRRRPPRLPRPRPRPLVAPRP | 0.755 |
| RRIRGRPPRLPRPRPRPLFTPRP | 0.572 |
| RRIRTRPPRLPRPRPRPGLTPRP | -0.0361 |
| RRIRERPPRLPRPRPRPNECPRP | -0.154 |
| RRIRKRPPRLPRPRPRPTIDPRP | 0.128 |
| RRIRNRPPRLPRPRPRPEWDPRP | -0.00515 |
| RRIRYRPPRLPRPRPRPYNKPRP | -0.734 |
| RRIRIRPPRLPRPRPRPFTQPRP | -0.71 |
| RRIRTRPPRLPRPRPRPQLQPRP | -0.0711 |
| RRIRFRPPRLPRPRPRPLLQPRP | 0.0394 |
| RRIRRRPPRLPRPRPRPDLDPRP | 0.67 |
| RRIRVRPPRLPRPRPRPRDLPRP | 0.0448 |
| RRIRHRPPRLPRPRPRPHTTPRP | -0.491 |

| Sequence | shrunken log2 fold change |
| --- | --- |
| RRIRRRPPRLPRPRPRPVDHPRP | 0.34 |
| RRIRLRPPRLPRPRPRPYKYPRP | 0.0639 |
| RRIRIRPPRLPRPRPRPLETPRP | -0.0471 |
| RRIRGRPPRLPRPRPRPWCLPRP | -0.262 |
| RRIRNRPPRLPRPRPRPCMTPRP | 0.0616 |
| RRIRWRPPRLPRPRPRPLWSPRP | -0.13 |
| RRIRNRPPRLPRPRPRPKLVPRP | 0.163 |
| RRIRTRPPRLPRPRPRPSSVPRP | -0.139 |
| RRIRMRPPRLPRPRPRPRTHPRP | 0.28 |
| RRIRKRPPRLPRPRPRPKYNPRP | -0.267 |
| RRIRSRPPRLPRPRPRPVHDPRP | -0.0657 |
| RRIRLRPPRLPRPRPRPALPPRP | 0.128 |
| RRIRQRPPRLPRPRPRPFLKPRP | -0.939 |
| RRIRHRPPRLPRPRPRPGEIPRP | 0.761 |
| RRIRVRPPRLPRPRPRPPAVPRP | 0.523 |
| RRIRSRPPRLPRPRPRPEPIPRP | 0.312 |
| RRIRRRPPRLPRPRPRPVTHPRP | 0.598 |
| RRIRPRPPRLPRPRPRPLIKPRP | -0.268 |
| RRIRWRPPRLPRPRPRPTSEPRP | 0.116 |
| RRIRWRPPRLPRPRPRPEATPRP | 1.44 |
| RRIRLRPPRLPRPRPRPANSPRP | -0.202 |
| RRIRNRPPRLPRPRPRPYSEPRP | -2.12 |
| RRIRRRPPRLPRPRPRPTHMPRP | 0.577 |
| RRIRARPPRLPRPRPRPNFGPRP | 0.324 |
| RRIRERPPRLPRPRPRPGVYPRP | -0.049 |

| Sequence | shrunken log2 fold change |
| --- | --- |
| RRIRQRPPRLPRPRPRPFYKPRP | -0.118 |
| RRIRFRPPRLPRPRPRPWQSPRP | 0.146 |
| RRIRQRPPRLPRPRPRPGTSPRP | -0.523 |
| RRIRARPPRLPRPRPRPQRFPRP | 0.0296 |
| RRIRYRPPRLPRPRPRPNVLPRP | -0.554 |
| RRIRDRPPRLPRPRPRPHCFPRP | 0.00117 |
| RRIRMRPPRLPRPRPRPKERPRP | 0.0219 |
| RRIRHRPPRLPRPRPRPLNLPRP | 0.00301 |
| RRIRIRPPRLPRPRPRPCMSPRP | -0.347 |
| RRIRIRPPRLPRPRPRPATHPRP | -0.165 |
| RRIRYRPPRLPRPRPRPHGHPRP | -0.358 |
| RRIRPRPPRLPRPRPRPYTSPRP | -0.261 |
| RRIRIRPPRLPRPRPRPCMQPRP | -0.0295 |
| RRIRIRPPRLPRPRPRPYFCPRP | -1.26 |
| RRIRNRPPRLPRPRPRPATWPRP | -0.000853 |
| RRIRQRPPRLPRPRPRPPVWPRP | 0.223 |
| RRIRMRPPRLPRPRPRPHKKPRP | 0.0772 |
| RRIRVRPPRLPRPRPRPKHPPRP | 0.28 |
| RRIRQRPPRLPRPRPRPLASPRP | 0.00224 |
| RRIRNRPPRLPRPRPRPKFSPRP | -0.0617 |
| RRIRIRPPRLPRPRPRPAARPRP | 0.278 |
| RRIRGRPPRLPRPRPRPSRKPRP | 0.293 |
| RRIRKRPPRLPRPRPRPKIIPRP | -0.135 |
| RRIRLRPPRLPRPRPRPCSVPRP | -0.0962 |
| RRIRRRPPRLPRPRPRPTAWPRP | 0.288 |

| Sequence | shrunken log2 fold change |
| --- | --- |
| RRIRKRPPRLPRPRPRPVNHPRP | -0.0443 |
| RRIRDRPPRLPRPRPRPEYRPRP | -0.0165 |
| RRIRCRPPRLPRPRPRPWGIPRP | -0.59 |
| RRIRKRPPRLPRPRPRPVVHPRP | 0.122 |
| RRIRWRPPRLPRPRPRPDITPRP | 0.179 |
| RRIRCRPPRLPRPRPRPCGKPRP | -0.0972 |
| RRIRIRPPRLPRPRPRPTNQPRP | -0.28 |
| RRIRQRPPRLPRPRPRPFENPRP | -0.00804 |
| RRIRVRPPRLPRPRPRPHIMPRP | -0.339 |
| RRIRTRPPRLPRPRPRPLEMPRP | 0.0834 |
| RRIRCRPPRLPRPRPRPHYKPRP | -0.894 |
| RRIRNRPPRLPRPRPRPKMMPRP | -0.249 |
| RRIRDRPPRLPRPRPRPERKPRP | 0.0234 |
| RRIRIRPPRLPRPRPRPCKGPRP | 0.00355 |
| RRIRLRPPRLPRPRPRPVGRPRP | 0.215 |
| RRIRNRPPRLPRPRPRPNISPRP | -0.476 |
| RRIRTRPPRLPRPRPRPEFAPRP | 0.0178 |
| RRIRNRPPRLPRPRPRPSDYPRP | 0.075 |
| RRIRFRPPRLPRPRPRPQLRPRP | 0.0318 |
| RRIRMRPPRLPRPRPRPWLQPRP | -0.000921 |
| RRIRNRPPRLPRPRPRPDAKPRP | 0.162 |
| RRIRRRPPRLPRPRPRPGTTPRP | 0.462 |
| RRIRARPPRLPRPRPRPEPVPRP | 0.512 |
| RRIRVRPPRLPRPRPRPEGVPRP | 0.907 |
| RRIRPRPPRLPRPRPRPKMNPRP | -0.273 |
